Experimental data reported in patent CN110028581A.

Columns and labels:
[1] = molecular target: 微囊藻毒素抗体Fab片段 (microcystin antibody Fab fragment)
[2] = molecular target: 微囊藻毒素抗体Fab片段 (microcystin antibody Fab fragment); assay: ic-ELISA: free MC-LR (1000 ng/mL dilution) against coated MC-LR-OVA for the Fab
[3] = molecular target: 微囊藻毒素抗体IgG in ascites (腹水)

For 微囊藻毒素-LR (microcystin-LR) (peptide), which IC20 [1] is on record?
Its IC20 is 0.15 ng/mL.

And the IC50 [1]?
Its IC50 is 0.56 ng/mL.

And the IC80 [1]?
Its IC80 is 2.1 ng/mL.

What about the 抑制率 (inhibition rate) [2] of the same substance?
Its 抑制率 (inhibition rate) is 99%.

What about the 抑制率 (inhibition rate) [3] of the same substance?
The 抑制率 (inhibition rate) was 91%.
